Experiments:
[1] = molecular target: T1, folate receptor alpha (FR-α) (human, UniProt P15328 25-234); assay: FACS on T47D cells
T1 construct: whole, on cells; also called FOLR1; human folate receptor 1
Description: T47D cells were then resuspended in growth media (see above) to neutralize trypsin, and were counted on a Coulter counter. Cells were then washed twice in cold FACS buffer, centrifuging in between washes at 1200 rpm for 5 min.
About 100 μl/mL of 2×10⁴ cells/well were added to wells containing ADC, antibody or FACS buffer only, and incubated at 4° C. for 2 hr. After incubation, cells were centrifuged as before and washed once in 200 μL/well cold FACS buffer. Cells were then stained with 200 μL/well FITC-conjugated Goat Anti-Human-IgG-Fcγ secondary antibody (controls included were unstained cells and those stained with secondary antibody only) for 40 min at 4° C., centrifuged and washed once in 200 μL/well cold PBS-D. Cells were fixed in 200 μL/well 1% formaldehyde/PBS-D and stored at 4° C.
After storage, cellular surface staining of conjugate or antibody was detected using flow cytometry on a FACS Calibur (BD Biosciences). The geometric means were plotted against the log concentration of ADC or antibody using GraphPad Prism and the EC₅₀ was calculated via non-linear 4-parameter logistic regression analysis.

[2] = molecular target: T1, folate receptor alpha (FR-α); assay: cell-based or functional assay
CD123 = CD123 (UniProt P26951 19-378, limits assumed); assay: cell-based or functional assay
Sequence of CD123 (P26951 19-378 limits assumed): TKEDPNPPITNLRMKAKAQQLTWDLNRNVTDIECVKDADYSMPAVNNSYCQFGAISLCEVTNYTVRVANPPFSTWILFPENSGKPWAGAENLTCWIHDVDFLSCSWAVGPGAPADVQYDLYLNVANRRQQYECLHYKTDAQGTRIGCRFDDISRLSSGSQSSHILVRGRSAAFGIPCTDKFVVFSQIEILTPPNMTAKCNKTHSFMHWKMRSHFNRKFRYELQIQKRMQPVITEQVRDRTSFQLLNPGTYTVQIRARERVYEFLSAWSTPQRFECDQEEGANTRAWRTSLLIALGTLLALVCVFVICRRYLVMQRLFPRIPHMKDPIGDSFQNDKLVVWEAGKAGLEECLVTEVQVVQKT

T1 sequence (P15328 25-234): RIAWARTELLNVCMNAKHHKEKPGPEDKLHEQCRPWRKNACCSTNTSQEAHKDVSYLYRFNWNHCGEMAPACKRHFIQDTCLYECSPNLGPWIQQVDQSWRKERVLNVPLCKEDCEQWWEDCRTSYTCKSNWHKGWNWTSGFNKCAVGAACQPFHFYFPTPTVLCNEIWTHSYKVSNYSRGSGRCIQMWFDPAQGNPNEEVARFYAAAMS

B1: huMOV19-NTS #2 (antibody)
heavy: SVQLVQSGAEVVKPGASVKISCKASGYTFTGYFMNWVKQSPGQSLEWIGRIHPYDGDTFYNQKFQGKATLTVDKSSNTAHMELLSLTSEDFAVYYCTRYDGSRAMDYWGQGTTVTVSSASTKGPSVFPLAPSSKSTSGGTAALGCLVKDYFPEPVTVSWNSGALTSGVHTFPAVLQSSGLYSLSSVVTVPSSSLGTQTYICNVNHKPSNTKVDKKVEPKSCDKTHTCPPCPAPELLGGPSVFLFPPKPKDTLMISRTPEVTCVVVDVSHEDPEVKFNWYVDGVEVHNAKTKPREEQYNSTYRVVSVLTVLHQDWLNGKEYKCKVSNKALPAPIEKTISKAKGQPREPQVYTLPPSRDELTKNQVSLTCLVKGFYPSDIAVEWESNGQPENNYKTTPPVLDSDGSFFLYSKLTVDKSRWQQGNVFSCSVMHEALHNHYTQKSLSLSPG
light: DIVLTQSPLSLAVSLGQPAIISCKASQSVSFAGTSLMHWYHQKPGQQPRLLIYRASNLEAGVPDRFSGSGSKTDFTLTISPVEAEDAATYYCQQSREYPYTFGGGTKLEIKRTVAAPSVFIFPPSDEQLKSGTASVVCLLNNFYPREAKVQWKVDNALQSGNSQESVTEQDSKDSTYSLSSTLTLSKADYEKHKVYACEVTHQGLSSPVTKSFNRGEC
notes: huMOV19 with the heavy chain N-terminal Gln replaced by Ser (huMov19 HC NTS2); also called SeriMab; huMOV19-SeriMab antibody
binding result [1]: binds

B2: huMOV19 (antibody, human IgG1, kappa)
heavy: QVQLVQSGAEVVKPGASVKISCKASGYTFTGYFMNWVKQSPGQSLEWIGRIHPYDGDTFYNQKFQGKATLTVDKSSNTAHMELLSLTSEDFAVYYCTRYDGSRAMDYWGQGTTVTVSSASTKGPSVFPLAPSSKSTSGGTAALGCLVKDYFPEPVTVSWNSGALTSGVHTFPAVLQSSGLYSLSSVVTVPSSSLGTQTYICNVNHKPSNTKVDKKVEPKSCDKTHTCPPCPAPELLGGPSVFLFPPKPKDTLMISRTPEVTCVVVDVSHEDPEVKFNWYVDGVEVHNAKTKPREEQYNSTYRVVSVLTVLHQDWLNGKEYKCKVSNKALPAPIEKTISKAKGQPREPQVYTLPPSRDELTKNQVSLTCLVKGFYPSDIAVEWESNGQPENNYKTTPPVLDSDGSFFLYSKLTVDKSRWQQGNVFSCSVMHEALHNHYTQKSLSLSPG
light: DIVLTQSPLSLAVSLGQPAIISCKASQSVSFAGTSLMHWYHQKPGQQPRLLIYRASNLEAGVPDRFSGSGSKTDFTLTISPVEAEDAATYYCQQSREYPYTFGGGTKLEIKRTVAAPSVFIFPPSDEQLKSGTASVVCLLNNFYPREAKVQWKVDNALQSGNSQESVTEQDSKDSTYSLSSTLTLSKADYEKHKVYACEVTHQGLSSPVTKSFNRGEC
notes: Humanized anti-folate receptor alpha IgG1/kappa; also called M9346A; unconjugated native huMOV19 antibody
binding result [1]: binds

B3: huMOV19-NTS #2-Linker1-Compound A (antibody)
heavy: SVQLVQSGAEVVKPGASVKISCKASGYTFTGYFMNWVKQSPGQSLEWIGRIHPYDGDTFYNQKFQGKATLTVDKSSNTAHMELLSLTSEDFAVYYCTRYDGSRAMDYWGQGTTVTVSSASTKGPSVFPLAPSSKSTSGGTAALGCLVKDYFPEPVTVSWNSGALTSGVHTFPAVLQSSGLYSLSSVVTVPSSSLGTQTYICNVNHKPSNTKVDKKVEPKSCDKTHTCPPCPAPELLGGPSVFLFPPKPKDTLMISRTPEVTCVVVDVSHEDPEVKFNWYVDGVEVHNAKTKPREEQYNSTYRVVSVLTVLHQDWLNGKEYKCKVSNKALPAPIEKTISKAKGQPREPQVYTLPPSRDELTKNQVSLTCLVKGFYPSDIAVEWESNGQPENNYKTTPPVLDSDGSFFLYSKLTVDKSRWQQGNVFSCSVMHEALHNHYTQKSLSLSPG
light: DIVLTQSPLSLAVSLGQPAIISCKASQSVSFAGTSLMHWYHQKPGQQPRLLIYRASNLEAGVPDRFSGSGSKTDFTLTISPVEAEDAATYYCQQSREYPYTFGGGTKLEIKRTVAAPSVFIFPPSDEQLKSGTASVVCLLNNFYPREAKVQWKVDNALQSGNSQESVTEQDSKDSTYSLSSTLTLSKADYEKHKVYACEVTHQGLSSPVTKSFNRGEC
modifications: N-terminal Ser oxidized to an aldehyde and linked through Linker1 to Compound A (sulfonated DGN462); two Compound A molecules per antibody
cytotoxicity on KB cells (WST-8), potency against the lysine-conjugated ADC, by Compound A concentration [2]: ~5 fold
cytotoxicity on KB cells (WST-8), potency against the lysine-conjugated ADC, by antibody concentration [2]: ~3 fold

B4: huCD123-6Rv1.1S2-SeriMab-D8 (antibody, V domains shown)
VH: SFQLVQSGAEVVKPGASVKMSCKASGYTFTSSIMHWMKQKPGQGLEWIGYIKPYNDGTKYNQKFQGKATLTSDKSSSTANMELNSLTSEDSAVYYCAREGGNDYYDTMDYWGQGTSVTVSS
VL: DIQMTQSPSSMSASVGERVTITCRASQDINSYLSWFQQKPGKSPKTLIYRVNRLVDGVPSRFSGSGSGQDYSLTISSLEPEDMGIYYCLQYDAFPYTFGQGTKLEIKR
IC50 of cytotoxicity on HNT-34 cells (WST-8) (CD123): ~0.002 nM
IC50 of cytotoxicity on MOLM-1 cells (WST-8) (CD123): ~0.03 nM
IC50 of cytotoxicity on SHI-1 cells (WST-8) (CD123): ~0.01 nM
loss of cytotoxicity when CD123 is blocked by unconjugated huCD123-6 antibody (CD123): 100 fold
